Laboratory results reported in PMC2801713 (Molecular Biology of the Cell, 2010).

Target: GFP-WIP (wild type) (human, UniProt O43516 1-503)
Assay: far-Western, overlay or dot blot

Sequence of GFP-WIP (wild type) (O43516 whole entry): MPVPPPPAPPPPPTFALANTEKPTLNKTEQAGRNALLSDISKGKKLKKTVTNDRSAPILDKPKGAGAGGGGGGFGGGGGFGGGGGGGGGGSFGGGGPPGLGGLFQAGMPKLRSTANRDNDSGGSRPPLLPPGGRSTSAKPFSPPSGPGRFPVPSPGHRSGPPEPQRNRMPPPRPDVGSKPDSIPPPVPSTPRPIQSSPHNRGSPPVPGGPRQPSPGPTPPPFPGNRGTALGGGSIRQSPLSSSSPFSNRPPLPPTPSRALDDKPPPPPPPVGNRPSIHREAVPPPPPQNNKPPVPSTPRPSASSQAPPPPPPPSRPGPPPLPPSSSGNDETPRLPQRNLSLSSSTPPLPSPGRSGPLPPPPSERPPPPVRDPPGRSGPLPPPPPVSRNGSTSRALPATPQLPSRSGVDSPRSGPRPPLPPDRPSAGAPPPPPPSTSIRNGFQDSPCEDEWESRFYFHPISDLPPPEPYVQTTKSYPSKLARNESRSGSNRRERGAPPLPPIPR

- binding result: binds
B1: His-mAbp1-GST (natural protein, mouse, UniProt Q62418 1-436, looked up)
chain: MAVNLSRNGPALQEAYVRVVTEKSPTDWALFTYEGNSNDIRVAGTGEGGLEELVEELNSGKVMYAFCRVKDPNSGLPKFVLINWTGEGVNDVRKGACANHVSTMANFLKGAHVTINARAEEDVEPECIMEKVAKASGANYSFHKESTSFQDVGPQAPVGSVYQKTNAISEIKRVGKDNFWAKAEKEEENRRLEEKRRAEEERQRLEEERRERELQEAARREQRYQEQHRSAGAPSPSSRTGEPEQEAVSRTRQEWESAGQQAPHPREIFKQKERAMSTTSVTSSQPGKLRSPFLQKQLTQPETSYGREPTAPVSRPAAGVCEEPAPSTLSSAQTEEEPTYEVPPEQDTLYEEPPLVQQQGAGSEHIDNYMQSQGFSGQGLCARALYDYQAADDTEISFDPENLITGIEVIDEGWWRGYGPDGHFGMFPANYVELIE
